In patent US9556236 (UNIVERSITY OF SOUTH FLORIDA, dated 2017):
Positions of bridges follow the written chain, without caps; N, C: chain ends. No end group written: not given here.

Target: RSV fusion (F) protein (respiratory syncytial virus (strains …, UniProt P03420 26-574))
Assay: cell-based or functional assay

Sequence of RSV fusion (F) protein (respiratory syncytial virus (P03420 26-574): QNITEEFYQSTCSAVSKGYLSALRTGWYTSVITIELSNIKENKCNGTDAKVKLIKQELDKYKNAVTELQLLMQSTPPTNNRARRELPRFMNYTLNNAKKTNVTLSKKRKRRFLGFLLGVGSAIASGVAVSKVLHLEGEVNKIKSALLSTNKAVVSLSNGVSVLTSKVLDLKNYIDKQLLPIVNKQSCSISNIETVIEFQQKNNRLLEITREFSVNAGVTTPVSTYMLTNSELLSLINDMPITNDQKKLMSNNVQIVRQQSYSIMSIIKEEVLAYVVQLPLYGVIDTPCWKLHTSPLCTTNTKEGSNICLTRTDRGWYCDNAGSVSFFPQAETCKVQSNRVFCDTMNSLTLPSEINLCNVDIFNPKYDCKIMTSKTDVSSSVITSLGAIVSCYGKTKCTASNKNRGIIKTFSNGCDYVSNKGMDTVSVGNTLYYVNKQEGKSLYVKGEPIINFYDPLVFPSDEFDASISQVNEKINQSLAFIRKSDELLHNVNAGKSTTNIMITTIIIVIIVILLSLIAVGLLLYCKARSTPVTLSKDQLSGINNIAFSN

Binder | A2 RSV viral titers, plaque assay (time point not clearly stated) | A2 RSV viral titers, plaque assay on HEp2 cells, 24 h to 96 h pi | A2 RSV viral titers, plaque assay, 96 h pi | RA2 RSV viral titers, plaque assay (time point not clearly stated) | RA2 RSV viral titers, plaque assay on HEp2 cells, 24 h to 96 h pi | RA2 RSV viral titers, plaque assay, 96 h pi
DACISQVNECINQSLAFICKSDELLCNT (not fully specified (bridges); also: predicted disulfides C3-C10 and C19-C26) [HR2-D] | 100 fold reduction | ≥ 100 fold reduction | 50000 fold reduction | 100 fold decrease | ≥ 100 fold reduction | 1000 fold less
FDACISQVNECINQSLAFIRKSDELLHNVNAGKST (disulfide 4-11) [HR2-S] | 0.1 fold decrease | ~0.2 fold reduction | 0.1 fold decrease | 100 fold decrease |  | 20 fold smaller
